Measurements published in the supplement of paper PMC10065799, “High-throughput profiling of sequence recognition by tyrosine kinases and SH2 domains using bacterial peptide display” (eLife, 2023).

target: Hck (UniProt P08631); assay: phosphorylation enrichment, bacterial display (enrichment ratio); higher = better substrate or ligand; peptides without Tyr show the background
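Note: 11-residue human phosphosite peptides and single-mutation variants displayed on the E. coli surface, counted by deep sequencing, each peptide's frequency after selection divided by its frequency in the unselected input library; frequency after pTyr selection over input frequency; kinase dosed for 20-30% of maximal phosphorylation in three min.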

Hck, sequence (P08631 whole entry, looked up): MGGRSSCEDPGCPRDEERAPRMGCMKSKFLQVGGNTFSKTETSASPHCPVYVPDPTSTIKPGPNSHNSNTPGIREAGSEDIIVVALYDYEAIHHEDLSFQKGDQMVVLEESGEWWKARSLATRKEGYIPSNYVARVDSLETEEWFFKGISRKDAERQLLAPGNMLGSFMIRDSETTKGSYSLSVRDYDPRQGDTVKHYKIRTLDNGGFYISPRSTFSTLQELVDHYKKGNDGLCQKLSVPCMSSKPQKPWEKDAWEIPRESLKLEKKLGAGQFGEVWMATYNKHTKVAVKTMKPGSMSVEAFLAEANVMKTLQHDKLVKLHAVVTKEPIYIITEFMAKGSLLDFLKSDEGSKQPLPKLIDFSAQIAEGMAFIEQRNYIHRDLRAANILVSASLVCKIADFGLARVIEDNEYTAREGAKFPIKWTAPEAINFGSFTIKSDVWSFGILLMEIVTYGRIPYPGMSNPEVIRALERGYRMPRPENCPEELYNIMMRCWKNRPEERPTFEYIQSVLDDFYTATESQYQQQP

Sequence | phosphorylation enrichment
QTPVLYAMLDH [MPZ_Y220] | 7.14
VPLATYMRIFK [RPL21_Y30_YF] | 0.537
WIPIQYLIISE [NOG_Y222_P223L] | 0.573
FHIDHYLGKEM [G6PD_Y202_R198H_YF] | 0.503
KVKPIYFRTQG [AR_Y916_H918R] | 0.495
FIPSNYVAEDR [FRK_Y104_YF] | 0.411
IALNSCHSRNC [IFNGR1_Y397_Y397C] | 0.358
GVVVPYEPPEV [TP53_Y220_S215G] | 0.41
TGDRPYVCPFD [YY1_Y383] | 0.464
AFRHGYFDEEM [PLEC_Y2971_R2969H_YF] | 0.456
GLAKEYTDPET [CSNK1G2_Y195_I196T] | 0.579
RMDGKYACSFT [FLNB_Y704_T703K_YF] | 0.964
VDYQPYRKHKY [TEX37_Y28] | 0.484
RSHRSYSCQVM [IGLL1_Y192_R189H] | 0.559
EKQARYEIVVE [CDH5_Y223] | 0.486
QLHRKYCLSPR [HJURP_Y445_E444K] | 0.533
PAKPRYRARQR [KCNJ11_Y26_E23K] | 0.819

Sequence | phosphorylation enrichment
GCRSKYVGLWG [KCNQ1_Y184] | 0.363
KKHIPYKEHKS [CSNK1G1_Y205_R206K] | 0.842
LAEMNYVHQDL [EPHB1_Y740_R743Q] | 0.51
GEFHVYRHLRW [PRKRIP1_Y82_R87W] | 0.429
AEDKPYAELWT [MPI_Y46_M51T] | 1.13
FGSVMYEFVGK [SLC18A1_Y251] | 8.76
FVTSMYNEILM [TRPV1_Y310] | 0.957
FLGRDYLETLM [DUS3L_Y610_YF] | 0.401
VTQEQYELFCE [CBL_Y368_YF] | 0.646
TDKLFYIYTSG [SLC27A4_Y243] | 0.522
LMVFEYMRHGN [NTRK1_Y591_D596N] | 0.597
EEKKKYFDAKI [CASP5_Y103_T106A_YF] | 0.442
AGQEKYSAMRD [HRAS_Y64_E63K] | 0.423
ILDEAYVMAGA [ERBB2_Y772_V777A] | 0.537
SQQTYYRVSNM [ABCD1_Y181] | 3.23
MKALGYFAVVT [OPA1_Y498] | 0.825

target: Fyn (UniProt P06241); assay: as above
Sequence (P06241 whole entry, looked up): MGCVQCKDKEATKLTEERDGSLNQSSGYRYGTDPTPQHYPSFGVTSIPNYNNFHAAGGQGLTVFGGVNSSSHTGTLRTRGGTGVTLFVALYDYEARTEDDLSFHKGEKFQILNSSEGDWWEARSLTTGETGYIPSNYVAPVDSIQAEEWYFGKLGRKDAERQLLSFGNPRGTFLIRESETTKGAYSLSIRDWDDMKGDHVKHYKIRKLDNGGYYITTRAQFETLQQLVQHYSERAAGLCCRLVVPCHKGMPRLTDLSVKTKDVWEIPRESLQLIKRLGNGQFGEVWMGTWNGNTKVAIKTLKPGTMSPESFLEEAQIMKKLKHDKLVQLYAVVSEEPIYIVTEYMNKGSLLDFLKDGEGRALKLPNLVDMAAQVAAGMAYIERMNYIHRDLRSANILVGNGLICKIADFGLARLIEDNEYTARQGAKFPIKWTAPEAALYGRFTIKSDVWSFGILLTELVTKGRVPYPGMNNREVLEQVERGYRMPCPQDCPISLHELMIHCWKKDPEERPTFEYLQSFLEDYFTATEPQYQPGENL

Sequence | phosphorylation enrichment
QTPVLYAMLDH [MPZ_Y220] | 5.21
VPLATYMRIFK [RPL21_Y30_YF] | 0.462
WIPIQYLIISE [NOG_Y222_P223L] | 0.474
FHIDHYLGKEM [G6PD_Y202_R198H_YF] | 0.39
KVKPIYFRTQG [AR_Y916_H918R] | 0.404
FIPSNYVAEDR [FRK_Y104_YF] | 0.394
IALNSCHSRNC [IFNGR1_Y397_Y397C] | 0.359
GVVVPYEPPEV [TP53_Y220_S215G] | 0.366
TGDRPYVCPFD [YY1_Y383] | 0.509
AFRHGYFDEEM [PLEC_Y2971_R2969H_YF] | 0.487
GLAKEYTDPET [CSNK1G2_Y195_I196T] | 0.634
RMDGKYACSFT [FLNB_Y704_T703K_YF] | 0.756
VDYQPYRKHKY [TEX37_Y28] | 0.436
RSHRSYSCQVM [IGLL1_Y192_R189H] | 0.508
EKQARYEIVVE [CDH5_Y223] | 0.433
QLHRKYCLSPR [HJURP_Y445_E444K] | 0.545
PAKPRYRARQR [KCNJ11_Y26_E23K] | 0.813

Sequence | phosphorylation enrichment
GCRSKYVGLWG [KCNQ1_Y184] | 0.38
KKHIPYKEHKS [CSNK1G1_Y205_R206K] | 0.597
LAEMNYVHQDL [EPHB1_Y740_R743Q] | 0.674
GEFHVYRHLRW [PRKRIP1_Y82_R87W] | 0.428
AEDKPYAELWT [MPI_Y46_M51T] | 1.3
FGSVMYEFVGK [SLC18A1_Y251] | 2.57
FVTSMYNEILM [TRPV1_Y310] | 0.647
FLGRDYLETLM [DUS3L_Y610_YF] | 0.422
VTQEQYELFCE [CBL_Y368_YF] | 0.599
TDKLFYIYTSG [SLC27A4_Y243] | 0.48
LMVFEYMRHGN [NTRK1_Y591_D596N] | 0.664
EEKKKYFDAKI [CASP5_Y103_T106A_YF] | 0.4
AGQEKYSAMRD [HRAS_Y64_E63K] | 0.427
ILDEAYVMAGA [ERBB2_Y772_V777A] | 0.596
SQQTYYRVSNM [ABCD1_Y181] | 1.47
MKALGYFAVVT [OPA1_Y498] | 0.63

target: EPHB2 (UniProt P29323); assay: as above
Sequence (P29323 whole entry, looked up): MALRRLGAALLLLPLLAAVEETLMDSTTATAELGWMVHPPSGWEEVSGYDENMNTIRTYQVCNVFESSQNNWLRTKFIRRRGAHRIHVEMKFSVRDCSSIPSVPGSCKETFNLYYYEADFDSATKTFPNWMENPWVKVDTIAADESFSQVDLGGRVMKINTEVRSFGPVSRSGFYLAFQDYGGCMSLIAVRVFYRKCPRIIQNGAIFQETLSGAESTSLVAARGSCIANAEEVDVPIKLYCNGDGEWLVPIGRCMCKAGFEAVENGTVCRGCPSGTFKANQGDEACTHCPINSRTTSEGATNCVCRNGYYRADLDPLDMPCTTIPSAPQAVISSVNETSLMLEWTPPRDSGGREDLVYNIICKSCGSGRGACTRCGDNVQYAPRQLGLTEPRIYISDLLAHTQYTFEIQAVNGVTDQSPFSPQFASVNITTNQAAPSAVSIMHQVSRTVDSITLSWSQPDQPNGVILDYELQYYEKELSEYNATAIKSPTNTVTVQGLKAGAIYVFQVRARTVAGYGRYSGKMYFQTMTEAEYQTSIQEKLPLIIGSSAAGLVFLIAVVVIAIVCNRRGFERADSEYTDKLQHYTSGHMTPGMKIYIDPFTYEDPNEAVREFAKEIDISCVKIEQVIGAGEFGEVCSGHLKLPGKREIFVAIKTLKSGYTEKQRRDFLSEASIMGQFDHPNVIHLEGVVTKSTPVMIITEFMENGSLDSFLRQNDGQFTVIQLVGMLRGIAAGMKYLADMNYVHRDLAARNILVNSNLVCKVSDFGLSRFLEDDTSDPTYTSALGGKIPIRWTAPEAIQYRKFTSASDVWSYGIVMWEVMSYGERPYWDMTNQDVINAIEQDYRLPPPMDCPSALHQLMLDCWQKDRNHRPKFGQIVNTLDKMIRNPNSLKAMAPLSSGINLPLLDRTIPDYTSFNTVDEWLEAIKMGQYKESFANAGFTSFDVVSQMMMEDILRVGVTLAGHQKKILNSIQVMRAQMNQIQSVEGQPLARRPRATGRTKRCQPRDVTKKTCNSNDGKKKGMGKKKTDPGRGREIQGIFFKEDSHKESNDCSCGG

Sequence | phosphorylation enrichment
QTPVLYAMLDH [MPZ_Y220] | 8.88
VPLATYMRIFK [RPL21_Y30_YF] | 0.425
WIPIQYLIISE [NOG_Y222_P223L] | 0.723
FHIDHYLGKEM [G6PD_Y202_R198H_YF] | 0.553
KVKPIYFRTQG [AR_Y916_H918R] | 0.396
FIPSNYVAEDR [FRK_Y104_YF] | 0.443
IALNSCHSRNC [IFNGR1_Y397_Y397C] | 0.351
GVVVPYEPPEV [TP53_Y220_S215G] | 0.559
TGDRPYVCPFD [YY1_Y383] | 0.46
AFRHGYFDEEM [PLEC_Y2971_R2969H_YF] | 0.59
GLAKEYTDPET [CSNK1G2_Y195_I196T] | 0.736
RMDGKYACSFT [FLNB_Y704_T703K_YF] | 0.977
VDYQPYRKHKY [TEX37_Y28] | 0.356
RSHRSYSCQVM [IGLL1_Y192_R189H] | 0.512
EKQARYEIVVE [CDH5_Y223] | 0.57
QLHRKYCLSPR [HJURP_Y445_E444K] | 0.728
PAKPRYRARQR [KCNJ11_Y26_E23K] | 1.06

Sequence | phosphorylation enrichment
GCRSKYVGLWG [KCNQ1_Y184] | 0.456
KKHIPYKEHKS [CSNK1G1_Y205_R206K] | 0.951
LAEMNYVHQDL [EPHB1_Y740_R743Q] | 0.72
GEFHVYRHLRW [PRKRIP1_Y82_R87W] | 0.458
AEDKPYAELWT [MPI_Y46_M51T] | 0.737
FGSVMYEFVGK [SLC18A1_Y251] | 3.28
FVTSMYNEILM [TRPV1_Y310] | 0.596
FLGRDYLETLM [DUS3L_Y610_YF] | 0.459
VTQEQYELFCE [CBL_Y368_YF] | 0.848
TDKLFYIYTSG [SLC27A4_Y243] | 0.682
LMVFEYMRHGN [NTRK1_Y591_D596N] | 0.692
EEKKKYFDAKI [CASP5_Y103_T106A_YF] | 0.43
AGQEKYSAMRD [HRAS_Y64_E63K] | 0.424
ILDEAYVMAGA [ERBB2_Y772_V777A] | 0.67
SQQTYYRVSNM [ABCD1_Y181] | 1.12
MKALGYFAVVT [OPA1_Y498] | 0.773

target: FGFR3 (UniProt P22607); assay: as above
Sequence (P22607 whole entry, looked up): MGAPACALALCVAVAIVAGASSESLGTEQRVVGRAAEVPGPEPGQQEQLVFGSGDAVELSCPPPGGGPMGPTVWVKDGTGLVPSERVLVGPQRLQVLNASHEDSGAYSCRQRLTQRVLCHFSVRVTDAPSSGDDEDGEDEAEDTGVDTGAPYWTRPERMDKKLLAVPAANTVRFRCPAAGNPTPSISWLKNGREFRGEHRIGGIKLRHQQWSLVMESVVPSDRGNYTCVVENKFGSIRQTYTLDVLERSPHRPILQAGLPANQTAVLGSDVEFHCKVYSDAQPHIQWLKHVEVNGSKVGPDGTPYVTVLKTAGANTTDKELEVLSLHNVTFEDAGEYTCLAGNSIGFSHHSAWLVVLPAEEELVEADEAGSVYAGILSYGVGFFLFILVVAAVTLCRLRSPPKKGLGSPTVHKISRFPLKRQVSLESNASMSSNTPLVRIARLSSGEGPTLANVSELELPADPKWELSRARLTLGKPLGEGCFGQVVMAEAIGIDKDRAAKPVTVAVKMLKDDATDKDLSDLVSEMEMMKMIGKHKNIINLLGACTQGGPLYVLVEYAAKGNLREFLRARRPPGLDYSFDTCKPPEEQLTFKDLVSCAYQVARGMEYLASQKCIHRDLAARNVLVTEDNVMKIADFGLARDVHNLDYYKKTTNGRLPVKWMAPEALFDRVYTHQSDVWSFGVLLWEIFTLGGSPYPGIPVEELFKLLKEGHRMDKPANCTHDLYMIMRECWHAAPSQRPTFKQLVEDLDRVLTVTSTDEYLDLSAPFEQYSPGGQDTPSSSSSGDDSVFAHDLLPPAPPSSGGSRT

Sequence | phosphorylation enrichment
QTPVLYAMLDH [MPZ_Y220] | 2.84
VPLATYMRIFK [RPL21_Y30_YF] | 0.501
WIPIQYLIISE [NOG_Y222_P223L] | 0.838
FHIDHYLGKEM [G6PD_Y202_R198H_YF] | 0.481
KVKPIYFRTQG [AR_Y916_H918R] | 0.448
FIPSNYVAEDR [FRK_Y104_YF] | 0.502
IALNSCHSRNC [IFNGR1_Y397_Y397C] | 0.371
GVVVPYEPPEV [TP53_Y220_S215G] | 0.581
TGDRPYVCPFD [YY1_Y383] | 0.635
AFRHGYFDEEM [PLEC_Y2971_R2969H_YF] | 0.676
GLAKEYTDPET [CSNK1G2_Y195_I196T] | 0.92
RMDGKYACSFT [FLNB_Y704_T703K_YF] | 1.45
VDYQPYRKHKY [TEX37_Y28] | 0.416
RSHRSYSCQVM [IGLL1_Y192_R189H] | 0.671
EKQARYEIVVE [CDH5_Y223] | 0.532
QLHRKYCLSPR [HJURP_Y445_E444K] | 0.581
PAKPRYRARQR [KCNJ11_Y26_E23K] | 0.642

Sequence | phosphorylation enrichment
GCRSKYVGLWG [KCNQ1_Y184] | 0.506
KKHIPYKEHKS [CSNK1G1_Y205_R206K] | 2.2
LAEMNYVHQDL [EPHB1_Y740_R743Q] | 1.01
GEFHVYRHLRW [PRKRIP1_Y82_R87W] | 0.682
AEDKPYAELWT [MPI_Y46_M51T] | 1
FGSVMYEFVGK [SLC18A1_Y251] | 1.35
FVTSMYNEILM [TRPV1_Y310] | 0.932
FLGRDYLETLM [DUS3L_Y610_YF] | 0.686
VTQEQYELFCE [CBL_Y368_YF] | 0.957
TDKLFYIYTSG [SLC27A4_Y243] | 0.811
LMVFEYMRHGN [NTRK1_Y591_D596N] | 0.707
EEKKKYFDAKI [CASP5_Y103_T106A_YF] | 0.464
AGQEKYSAMRD [HRAS_Y64_E63K] | 0.498
ILDEAYVMAGA [ERBB2_Y772_V777A] | 0.789
SQQTYYRVSNM [ABCD1_Y181] | 5.82
MKALGYFAVVT [OPA1_Y498] | 0.996
